± gives the uncertainty stated by the source.
B1: Protein maelstrom homolog, residues 3 to 71; numbered along this chain, Q96JY0 (parent)
chain: NRKASRNAYYFFVQEKIPELRRRGLPVARVADAIPYCSSDWALLREEEKEKYAEMAREWRAAQGKDPGP

Variants of: B1
Test: abundance fitness (aPCA) (normalised: wild type 0, dead -1); higher = more abundant; growth selection in yeast, the domain comes from the species named
Conditions: Homo sapiens

Row | Variant | abundance fitness
1 | NRKASRNAYYFFLQEKIPELRRRGLPVARVADAIPYCSSDWALLREEEKEKYAEMAREWRAAQGKDPGP [V13L] | -0.32 ± 0.25
2 | NRKASRNAYYFFIQEKIPELRRRGLPVARVADAIPYCSSDWALLREEEKEKYAEMAREWRAAQGKDPGP [V13I] | -0.375 ± 0.36
3 | NRKASRNAYYFFFQEKIPELRRRGLPVARVADAIPYCSSDWALLREEEKEKYAEMAREWRAAQGKDPGP [V13F] | -0.532 ± 0.26
4 | NRKASRNAYYFFGQEKIPELRRRGLPVARVADAIPYCSSDWALLREEEKEKYAEMAREWRAAQGKDPGP [V13G] | -0.797 ± 0.45
5 | NRKASRNAYYFFVQEKAPELRRRGLPVARVADAIPYCSSDWALLREEEKEKYAEMAREWRAAQGKDPGP [I17A] | -0.467 ± 0.084
6 | NRKASRNAYYFFVIEKIPELRRRGLPVARVADAIPYCSSDWALLREEEKEKYAEMAREWRAAQGKDPGP [Q14I] | -0.228 ± 0.077
7 | NRKASRNAYYFFVLEKIPELRRRGLPVARVADAIPYCSSDWALLREEEKEKYAEMAREWRAAQGKDPGP [Q14L] | -0.079 ± 0.056
8 | NRKASRNAYYFFVCEKIPELRRRGLPVARVADAIPYCSSDWALLREEEKEKYAEMAREWRAAQGKDPGP [Q14C] | -0.148 ± 0.081
9 | NRKASRNAYYFFVWEKIPELRRRGLPVARVADAIPYCSSDWALLREEEKEKYAEMAREWRAAQGKDPGP [Q14W] | -0.014 ± 0.072
10 | NRKASRNAYYFFVSEKIPELRRRGLPVARVADAIPYCSSDWALLREEEKEKYAEMAREWRAAQGKDPGP [Q14S] | -0.196 ± 0.058
11 | NRKASRNAYYFFVEEKIPELRRRGLPVARVADAIPYCSSDWALLREEEKEKYAEMAREWRAAQGKDPGP [Q14E] | 0.135 ± 0.08
12 | NRKASRNAYYFFVVEKIPELRRRGLPVARVADAIPYCSSDWALLREEEKEKYAEMAREWRAAQGKDPGP [Q14V] | -0.265 ± 0.057
13 | NRKASRNAYYFFVMEKIPELRRRGLPVARVADAIPYCSSDWALLREEEKEKYAEMAREWRAAQGKDPGP [Q14M] | -0.023 ± 0.074
14 | NRKASRNAYYFFVDEKIPELRRRGLPVARVADAIPYCSSDWALLREEEKEKYAEMAREWRAAQGKDPGP [Q14D] | 0.054 ± 0.098
15 | NRKASRNAYYFFVYEKIPELRRRGLPVARVADAIPYCSSDWALLREEEKEKYAEMAREWRAAQGKDPGP [Q14Y] | -0.145 ± 0.13
16 | NRKASRNAYYFFVHEKIPELRRRGLPVARVADAIPYCSSDWALLREEEKEKYAEMAREWRAAQGKDPGP [Q14H] | -0.618 ± 0.19
17 | NRKASRNAYYFFVPEKIPELRRRGLPVARVADAIPYCSSDWALLREEEKEKYAEMAREWRAAQGKDPGP [Q14P] | -0.724 ± 0.1
18 | NRKASRNAYYFFVGEKIPELRRRGLPVARVADAIPYCSSDWALLREEEKEKYAEMAREWRAAQGKDPGP [Q14G] | -0.303 ± 0.068
19 | NRKASRNAYYFFVAEKIPELRRRGLPVARVADAIPYCSSDWALLREEEKEKYAEMAREWRAAQGKDPGP [Q14A] | -0.171 ± 0.067
20 | NRKASRNAYYFFVTEKIPELRRRGLPVARVADAIPYCSSDWALLREEEKEKYAEMAREWRAAQGKDPGP [Q14T] | -0.186 ± 0.063

Row | Variant | abundance fitness
21 | NRKASRNAYYFFVREKIPELRRRGLPVARVADAIPYCSSDWALLREEEKEKYAEMAREWRAAQGKDPGP [Q14R] | -0.074 ± 0.056
22 | NRKASRNAYYFFVFEKIPELRRRGLPVARVADAIPYCSSDWALLREEEKEKYAEMAREWRAAQGKDPGP [Q14F] | -0.299 ± 0.12
23 | NRKASRNAYYFFVQDKIPELRRRGLPVARVADAIPYCSSDWALLREEEKEKYAEMAREWRAAQGKDPGP [E15D] | -0.241 ± 0.23
24 | NRKASRNAYYFFVQHKIPELRRRGLPVARVADAIPYCSSDWALLREEEKEKYAEMAREWRAAQGKDPGP [E15H] | 0.023 ± 0.28
25 | NRKASRNAYYMFVQEKIPELRRRGLPVARVADAIPYCSSDWALLREEEKEKYAEMAREWRAAQGKDPGP [F11M] | -0.072 ± 0.1
26 | NRKASRNAYYWFVQEKIPELRRRGLPVARVADAIPYCSSDWALLREEEKEKYAEMAREWRAAQGKDPGP [F11W] | -0.371 ± 0.15
27 | NRKASRNAYYNFVQEKIPELRRRGLPVARVADAIPYCSSDWALLREEEKEKYAEMAREWRAAQGKDPGP [F11N] | -0.512 ± 0.28
28 | NRKASRNAYYIFVQEKIPELRRRGLPVARVADAIPYCSSDWALLREEEKEKYAEMAREWRAAQGKDPGP [F11I] | -0.398 ± 0.17
29 | NRKASRNAYYDFVQEKIPELRRRGLPVARVADAIPYCSSDWALLREEEKEKYAEMAREWRAAQGKDPGP [F11D] | -0.705 ± 0.18
30 | NRKASRNAYYRFVQEKIPELRRRGLPVARVADAIPYCSSDWALLREEEKEKYAEMAREWRAAQGKDPGP [F11R] | -0.674 ± 0.091
31 | NRKASRNAYYSFVQEKIPELRRRGLPVARVADAIPYCSSDWALLREEEKEKYAEMAREWRAAQGKDPGP [F11S] | -0.526 ± 0.077
32 | NRKASRNAYYPFVQEKIPELRRRGLPVARVADAIPYCSSDWALLREEEKEKYAEMAREWRAAQGKDPGP [F11P] | -0.776 ± 0.16
33 | NRKASRNAYYVFVQEKIPELRRRGLPVARVADAIPYCSSDWALLREEEKEKYAEMAREWRAAQGKDPGP [F11V] | -0.502 ± 0.088
34 | NRKASRNAYYKFVQEKIPELRRRGLPVARVADAIPYCSSDWALLREEEKEKYAEMAREWRAAQGKDPGP [F11K] | -0.94 ± 0.2
35 | NRKASRNAYYCFVQEKIPELRRRGLPVARVADAIPYCSSDWALLREEEKEKYAEMAREWRAAQGKDPGP [F11C] | -0.313 ± 0.22
36 | NRKASRNAYYGFVQEKIPELRRRGLPVARVADAIPYCSSDWALLREEEKEKYAEMAREWRAAQGKDPGP [F11G] | -0.694 ± 0.18
37 | NRKASRNAYYQFVQEKIPELRRRGLPVARVADAIPYCSSDWALLREEEKEKYAEMAREWRAAQGKDPGP [F11Q] | -0.328 ± 0.1
38 | NRKASRNAYYTFVQEKIPELRRRGLPVARVADAIPYCSSDWALLREEEKEKYAEMAREWRAAQGKDPGP [F11T] | -0.38 ± 0.18
39 | NRKASRNAYYLFVQEKIPELRRRGLPVARVADAIPYCSSDWALLREEEKEKYAEMAREWRAAQGKDPGP [F11L] | -0.322 ± 0.07

— the Human Domainome abundance scans (Beltran et al. 2025)
